These results are taken from the supplement of paper PMC10126150.

± gives the standard deviation of the averaged measurements.

The subject of the data set is ATP. Kind of data set: switch fluorescence ratio, 500 uM ATP over buffer (Cy3 cluster intensity, sum of 5 cycles each) (fold (ratio)); higher = stronger signal-on switching upon ATP binding; sequences stand for … in TCGTCGGCAGCGTCAGATGTGTATAAGAGACAGTTTTTTTTTTTTTTTTTTTTTTTTT…TC. As to conditions: aptamer strand: ATP DNA aptamer (quencher-CACCTGGGGGAGTATTGCGGAGGAAGG + anchor), 100 nM annealed; ATP concentration: 500 uM. The essentials: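 For every switch-domain sequence, the fluorescence ratio is the mean of per-cluster values, each being summed target-cycle Cy3 intensity over summed buffer-cycle Cy3 intensity. Clusters outside 100-1000 RFU were excluded. On a modified Illumina MiSeq flow-cell, the Cy3-labelled switching-strand clusters were annealed to 100 nM quencher-labelled ATP aptamer, imaged in selection buffer and then after 15 min with 500 uM ATP at 22 °C. Five such cycles were run, with NaOH stripping and re-annealing between them.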
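Note: ATP exposure 15 min at 22 °C before imaging.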

Regarding CAGGGGAAAC, the switch fluorescence ratio amounted to 1.02 ± 0.077. Regarding CAGGGGCGAC, the switch fluorescence ratio was determined as 1.02 ± 0.049. Consider CAGGGGCTTA, for which the switch fluorescence ratio is 1 ± 0.038. Under CAGGGGCTTT stands 1.04 ± 0.0067; under CAGGGGGATA, 1.3 ± 0.43; under CAGGGGGATG, 1.01 ± 0.032. For the sequence CAGGGGGCCG, the switch fluorescence ratio was found to be 1.01 ± 0.078.

On to CAGGGGGCGA, for which the switch fluorescence ratio is 1.06 ± 0.07. Under CAGGGGGCTT stands 1.03 ± 0.054; under CAGGGGGGCG, 1.04 ± 0.088; under CAGGGGTAAA, 1.01 ± 0.019. Under CAGGGGTAGG stands 1.09 ± 0.044. The figure for CAGGGGTCTG is 0.997 ± 0.038; for CAGGGGTGGT it is 1.01 ± 0.039; for CAGGGGTTTG it is 1 ± 0.051. As to CAGGGTAGTG, the switch fluorescence ratio was determined as 1.01 ± 0.045. The figure for CAGGGTGCTA is 1 ± 0.075; for CAGGGTGGTT it is 1.03 ± 0.028. The figure for CAGGGTTGGC is 1.03 ± 0.012; for CAGGTAGGCG it is 0.984 ± 0.016; for CAGGTAGGGG it is 0.9507 ± 0.0065. For the sequence CAGGTAGTGT, the switch fluorescence ratio came to 1.02 ± 0.024. The figure for CAGGTAGTTG is 1.004 ± 0.0032; for CAGGTATAGG it is 0.9864 ± 0.0054; for CAGGTCAGGG it is 0.998 ± 0.014. Under CAGGTCAGGT stands 1.01 ± 0.045; under CAGGTCGCGG, 1.005 ± 0.006; under CAGGTCTTAT, 1.01 ± 0.028. For the sequence CAGGTCTTGC, the switch fluorescence ratio stood at 1 ± 0.015. For CAGGTGAGAA, the switch fluorescence ratio was 1.16 ± 0.026. As to CAGGTGAGTT, the switch fluorescence ratio was determined as 1.34 ± 0.32. The figure for CAGGTGATAC is 2.42 ± 0.29; for CAGGTGGGGG it is 1.01 ± 0.033; for CAGGTGGTGT it is 1.11 ± 0.066. In the case of CAGGTTAATT, the switch fluorescence ratio was determined as 1.02 ± 0.044. The figure for CAGGTTCACG is 1.02 ± 0.032. Under CAGGTTGAAC stands 0.9866 ± 0.0021; under CAGGTTGTGT, 0.99 ± 0.031. Turning to CAGGTTTCTA, the switch fluorescence ratio came to 1 ± 0.043.

On to CAGGTTTGG, for which the switch fluorescence ratio is 0.982 ± 0.014. The figure for CAGTAAAAGG is 1.01 ± 0.028; for CAGTAAAGGA it is 1.02 ± 0.053. Consider CAGTAATTGA, for which the switch fluorescence ratio came to 1 ± 0.026. Under CAGTACGCGT stands 1.04 ± 0.017. The figure for CAGTAGAAAG is 1.01 ± 0.0081. The figure for CAGTAGCGGT is 1.97 ± 0.35.

For the sequence CAGTAGGGCA, the switch fluorescence ratio worked out at 0.982 ± 0.041. Take CAGTATTTTG: the switch fluorescence ratio was found to be 0.9952 ± 0.0031.

As to CAGTCCGGGC, the switch fluorescence ratio was determined as 0.991 ± 0.028. Under CAGTCGACTG stands 1.01 ± 0.019. The figure for CAGTCGCCAG is 1.02 ± 0.0024; for CAGTGAATGT it is 0.976 ± 0.039. Turning to CAGTGATGAG, the switch fluorescence ratio stood at 1.03 ± 0.012.

On to CAGTGATTAT, for which the switch fluorescence ratio was found to be 1.01 ± 0.018. The figure for CAGTGCCTGT is 1.01 ± 0.034; for CAGTGCGCTA it is 1.15 ± 0.02. As for CAGTGGCGTC, the switch fluorescence ratio is 1.05 ± 0.02. Regarding CAGTGGGACT, the switch fluorescence ratio is 0.974 ± 0.024. Under CAGTGGGCGG stands 1.06 ± 0.07; under CAGTGGGCGT, 1.04 ± 0.026; under CAGTGGGTGG, 0.982 ± 0.027.

CAGTGGGTTT: the switch fluorescence ratio worked out at 0.97 ± 0.032. In the case of CAGTGGTACG, the switch fluorescence ratio worked out at 1.02 ± 0.065.

Regarding CAGTGGTTGG, the switch fluorescence ratio was found to be 1.01 ± 0.013.

As to CAGTGTGAGC, the switch fluorescence ratio was 1.01 ± 0.039. The figure for CAGTTAATTG is 1.03 ± 0.013.

Consider CAGTTACGGT, for which the switch fluorescence ratio was determined as 1.003 ± 0.0068.

In the case of CAGTTAGATA, the switch fluorescence ratio is 1.02 ± 0.031. For the sequence CAGTTAGCAT, the switch fluorescence ratio stood at 1.101 ± 0.0097. Under CAGTTATGTT stands 0.993 ± 0.036; under CAGTTCATTA, 0.9976 ± 0.0031; under CAGTTCGGCC, 1.01 ± 0.024.

CAGTTGCCAG: the switch fluorescence ratio came to 0.953 ± 0.019. In the case of CAGTTGGACG, the switch fluorescence ratio turned out to be 1.04 ± 0.11. Turning to CAGTTGTGGG, the switch fluorescence ratio was found to be 0.9802 ± 0.0066.

On to CAGTTGTTGC, for which the switch fluorescence ratio was determined as 0.984 ± 0.023. For the sequence CAGTTTGATG, the switch fluorescence ratio came to 1.003 ± 0.0083. Consider CAGTTTGGGG, for which the switch fluorescence ratio came to 0.982 ± 0.019. Turning to CAGTTTGTTT, the switch fluorescence ratio came out at 0.9881 ± 0.0031. The figure for CAGTTTTTAT is 1.01 ± 0.026; for CAGTTTTTTA it is 0.983 ± 0.016; for CATAAGATGT it is 1 ± 0.021. The figure for CATAAGGTTG is 0.991 ± 0.017; for CATAATTAGT it is 0.994 ± 0.018. Under CATAATTGCT stands 1.01 ± 0.0059; under CATAATTTTA, 1.007 ± 0.01. In the case of CATACGGGGT, the switch fluorescence ratio came to 1.01 ± 0.032.

Take CATAGCGTTA: the switch fluorescence ratio worked out at 1.03 ± 0.011.

As for CATAGGAAGG, the switch fluorescence ratio turned out to be 0.987 ± 0.013.

CATAGGGGGG: the switch fluorescence ratio turned out to be 0.988 ± 0.015.

As to CATAGGGTGA, the switch fluorescence ratio is 1.01 ± 0.026.

With CATAGGTAGT, the switch fluorescence ratio came out at 0.981 ± 0.016. The figure for CATAGGTTTT is 1.03 ± 0.066; for CATAGTAGAA it is 0.978 ± 0.034; for CATAGTATGG it is 0.9706 ± 0.0029. The figure for CATAGTGCTT is 0.9715 ± 0.0043.

For the sequence CATATAGCAC, the switch fluorescence ratio came out at 1.18 ± 0.019.

Take CATATAGGGT: the switch fluorescence ratio amounted to 0.976 ± 0.038. On to CATATAGTTC, for which the switch fluorescence ratio came to 0.984 ± 0.03. The figure for CATATGACGG is 0.986 ± 0.038; for CATATGGTTG it is 0.99 ± 0.018; for CATATGTAGA it is 0.997 ± 0.023. The figure for CATCAGGCGG is 1.02 ± 0.015; for CATCAGGTTT it is 0.991 ± 0.0015; for CATCGAATGC it is 1.23 ± 0.12.

On to CATCGCATCT, for which the switch fluorescence ratio was found to be 1.79 ± 0.056. Consider CATCGCGGTT, for which the switch fluorescence ratio turned out to be 1.07 ± 0.022. Take CATCGGGACG: the switch fluorescence ratio stood at 1.04 ± 0.053. The figure for CATCGGGGGT is 1.29 ± 0.67. For the sequence CATCGGTAGA, the switch fluorescence ratio amounted to 1.02 ± 0.017. Under CATCTATCCG stands 0.963 ± 0.012; under CATCTCTTGC, 1.07 ± 0.036; under CATCTGGGGG, 1.04 ± 0.054. The figure for CATCTGTTGT is 0.9856 ± 0.0092; for CATGAAAAAT it is 1 ± 0.011. Under CATGAAGATG stands 0.98 ± 0.012. As to CATGAATAG, the switch fluorescence ratio was 0.994 ± 0.011. On to CATGAATATG, for which the switch fluorescence ratio worked out at 1.01 ± 0.03.

On to CATGAATATT, for which the switch fluorescence ratio came to 0.99 ± 0.037. Under CATGACCTTT stands 1.04 ± 0.016.
